The results in this text go back to patent US20250090676A1 (SUTRO BIOPHARMA, published 2025).

A word on the Kd: it is the constant that tells how readily two partners part at equilibrium. In general, koff refers to the first-order rate constant of dissociation. What is called kon is the rate constant with which the complex forms. For orientation: EC50 (read off the curve) means the concentration at which the effect is half-maximal.

The target in test [1] is T1, human folate receptor alpha (hFOLR1) (human, UniProt P15328 25-234). Description: cell-based or functional assay.
For test [2], the target named is T2, cynomolgus monkey folate receptor alpha (cynomolgus monkey, UniProt P15328 25-234 (human entry)).
T2 construct: Expressed on the surface of stably transfected CHO cells; also called cyno FolR1; CHO-cyno FolR1
Description: FACS, CHO-cFOLR1 cells. A general note: A flow cytometer gives signals particle by particle.
Description: (§1) CHO cells were transfected to stably express human (CHO-hFOLR1), cynomolgus (CHO-cFOLR1), or mouse (CHO-mFOLR1) target molecule FOLR1 on the cell surface. Parental CHO cells were used as a negative control to determine background binding levels. Parental CHO and stably transfected CHO-hFOLR1, CHO-cFOLR1, and CHO-mFOLR1 cells were cultured in Ham's F-12: high glucose DMEM (50:50) (Corning, Cellgro-Mediatech) supplemented with 10% heat-inactivated fetal bovine serum (Corning, Cellgro-Mediatech), 1% Penicillin/Streptomycin (Corning, Cellgro-Mediatech) and 2 mmol/L-glutamax (Life Technology).
(§2) A mixture of fluoresecent-labeled parental CHO cells and unlabeled CHO-hFOLRlcells were prepared as follows. Parental CHO cells were washed twice in PBS and incubated in PBS containing with 1 nM CellTrace™ Oregon Green488® (Life Technologies) at 37° C. for 30 minutes. Labeled parental CHO cells were then washed 2× with Ham's F-12 media and 2× with FACS buffer (PBS with 1% bovine serum albumin). Unlabeled CHO-hFOLR1 cells were similarly washed and prepared. Labeled parental CHO and unlabeled CHO-hFOLR1 cells were combined at 1:1 ratio and seeded at 50 μL per well (200,000 cells per well) in 96 well polypropylene plates. Cells were mixed with 50 μL of test antibodies (i.e., anti-FOLR1 variants) serially diluted in FACS buffer and incubated on ice for 60 mins. […] Data were analyzed using FlowJo® software (FlowJo, LLC; Ashland, OR) to determine mean fluorescence intensities. Binding constants were calculated using the statistical software, GraphPad Prism (GraphPad Software; La Jolla, CA) using the nonlinear regression equation, one site-specific binding with Hill slope. Secondary antibody alone was used as a control, in addition to measuring non-specific antibody binding to CHO parental cells.

Test [3] addresses T3, murine folate receptor alpha (mouse, UniProt P35846 25-232).
T3 construct: Expressed on the surface of stably transfected CHO cells; also called mouse FolR1; CHO-mouse FolR1
Description: FACS, CHO-mFOLR1 cells.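 Note: flow cytometry binding of serially diluted test antibodies to transfected CHO cells on ice, mean fluorescence intensity, parental CHO cells give background, Kd from one-site specific binding fit with Hill slope.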
Description: as §1, §2

Test [4] addresses T1, human folate receptor alpha (hFOLR1). Description: FACS, CHO-hFOLR1 cells.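 Note: flow cytometry of serially diluted antibodies binding CHO cells stably expressing the receptor, 60 min on ice, mixed with dye-tagged parental CHO as background control, one-site specific fit with Hill slope.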
Description: as §1, §2
Test [5] has as its target T4, human FOLR1-HIS (human, UniProt P15328 25-233).
T4 construct: Analyte of the Biacore assay; also called FolRα-ECD; extracellular domain of FOLR1; not shown: HIS tag
Description: SPR (Biacore), antibody captured on anti-Fc, human FOLR1-HIS analyte, 25 C.

The target of test [6] is T5, cynomolgus folate receptor alpha on CHO cells (cynomolgus monkey, UniProt P15328 25-234 (human entry)).
T5 construct: Stably expressed on CHO cells; also called CHO-c-FOLRα; CHO-cFOLR1
Description: FACS cell binding on CHO-c-FOLRα cells (row 'Cross-reactivity, Cyno').
Description: as §1
(§3) A mixture of fluoresecent-labeled parental CHO cells and unlabeled CHO-hFOLRlcells were prepared as follows. Parental CHO cells were washed twice in PBS and incubated in PBS containing with 1 nM CellTrace™ Oregon Green488® (Life Technologies) at 37° C. for 30 minutes. Labeled parental CHO cells were then washed 2× with Ham's F-12 media and 2× with FACS buffer (PBS with 1% bovine serum albumin). Unlabeled CHO-hFOLR1 cells were similarly washed and prepared. […] Data were analyzed using FlowJo® software (FlowJo, LLC; Ashland, OR) to determine mean fluorescence intensities. Binding constants were calculated using the statistical software, GraphPad Prism (GraphPad Software; La Jolla, CA) using the nonlinear regression equation, one site-specific binding with Hill slope. […]

The target of test [7] is T4, human FOLR1-HIS. Description: SPR (Biacore). (In general: SPR reads the build-up and loss of mass on a sensor chip optically.)
Test [8] deals with T6, human folate receptor alpha (hFOLR1) on cells (human, UniProt P15328 25-234).
T6 construct: It is endogenous on the Igrov1 and OVCAR3 tumour cells of the killing assays; also called CHO-h-FOLRα; CHO-hFOLR1
Description: FACS cell binding on CHO-h-FOLRα cells.
Description: as §1, §3

Test [9] concerns the target T7, human folate receptor alpha on cells (human, UniProt P15328 25-234). The test is described as follows: cell-based or functional assay.
Test [10] concerns the target T8, human folate receptor beta on cells (human, UniProt P14207 17-230). Description: cell-based or functional assay.
Test [11] concerns the target T6, human folate receptor alpha (hFOLR1) on …. The test is described as follows: cell-based or functional assay.
The target of test [12] is T7, human folate receptor alpha on cells. The test is described as follows: FACS cell binding (MFI) on 293T cells stably expressing hFOLR1 (293T-hFOLR1); parental 293T cells as negative control.
Test [13] has the same target. Description: FACS cell binding (MFI) on 293T-hFOLR1 cells; parental 293T cells as negative control.
The target of test [14] is T8, human folate receptor beta on cells. The test is described as follows: FACS cell binding (MFI) on 293T cells stably expressing hFOLR2 (293T-hFOLR2); parental 293T cells as negative control.

T4 sequence (P15328 25-233 limits assumed): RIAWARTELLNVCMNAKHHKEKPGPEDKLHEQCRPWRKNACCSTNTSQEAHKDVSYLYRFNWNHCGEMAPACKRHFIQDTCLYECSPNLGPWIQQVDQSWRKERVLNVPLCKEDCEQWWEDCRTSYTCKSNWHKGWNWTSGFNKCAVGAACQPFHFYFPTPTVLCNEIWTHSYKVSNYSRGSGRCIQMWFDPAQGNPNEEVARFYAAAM
T3 sequence (P35846 25-232 limits assumed): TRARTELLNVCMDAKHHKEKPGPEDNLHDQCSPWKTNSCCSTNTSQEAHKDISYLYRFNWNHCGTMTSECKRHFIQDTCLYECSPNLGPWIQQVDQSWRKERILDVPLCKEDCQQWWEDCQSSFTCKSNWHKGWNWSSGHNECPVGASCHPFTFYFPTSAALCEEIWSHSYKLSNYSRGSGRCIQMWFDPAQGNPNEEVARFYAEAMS
T7 sequence (P15328 25-234 limits assumed): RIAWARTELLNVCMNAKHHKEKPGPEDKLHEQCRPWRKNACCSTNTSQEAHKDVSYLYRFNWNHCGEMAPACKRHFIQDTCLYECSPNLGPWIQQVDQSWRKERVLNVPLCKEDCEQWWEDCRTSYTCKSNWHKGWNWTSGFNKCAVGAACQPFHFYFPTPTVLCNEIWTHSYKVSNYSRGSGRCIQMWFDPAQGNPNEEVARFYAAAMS
T1 sequence (P15328 25-234 limits assumed): as above
T6 sequence (P15328 25-234 limits assumed): as above
T2 sequence (P15328 other isoform, or with tags, fused parts or gaps limits assumed): as the sequence (P15328 25-234 limits assumed) above, with I2T, W4R, R37K, Q117R, A146P, H171Y counted along it
T8 sequence (P14207 17-230): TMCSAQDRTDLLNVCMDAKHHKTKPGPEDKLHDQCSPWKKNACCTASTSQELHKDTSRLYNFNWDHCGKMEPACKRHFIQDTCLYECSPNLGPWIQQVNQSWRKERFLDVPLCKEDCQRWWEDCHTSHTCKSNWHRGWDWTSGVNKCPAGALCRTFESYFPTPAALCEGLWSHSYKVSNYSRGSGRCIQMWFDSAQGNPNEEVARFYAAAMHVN
T5 sequence (P15328 other isoform, or with tags, fused parts or gaps limits assumed): as the sequence (P15328 25-234 limits assumed) above, with I2T, W4R, R37K, Q117R, A146P, H171Y counted along it

B1: SRP1848-E03 (antibody, V domains shown)
VH: EVQLVESGGGLAQPGGSLRLSCAASGFNIGNYYIHWVRQAPGKGLEWVGGITPRDGFTDYADSVKGRFTISADTSKNTAYLQVNSLRAEDTAVYYCARGSWSWPAGHSYYLDYWGQGTLVTVSS
VL: not shown
notes: HC variant paired with trastuzumab LC, cell-free expressed, HIS- and FLAG-tagged; also called Antibody 33
As to B1, in test [1], the “Igrov, 2° Antibody Cell Killing, Nb-SC239: EC50” value turned out to be 0.027 nM; the “Igrov, 2° Antibody Cell Killing, Nb-SC239: Span” value came to 73%; the “KB, 2° Antibody Cell Killing, Nb-239: EC50” value was 0.057 nM; the “KB, 2° Antibody Cell Killing, Nb-239: Span” value amounted to 94%. Further, in test [2], the “Bmax (MFI)” value came out at 17400 MFI and the dissociation constant Kd is 0.43 nM. In test [3], the “Bmax (MFI)” value is 5940 MFI and binding was put at a Kd of 0.5 nM. Moreover, in test [4], the “Bmax (MFI)” value came to 26700 MFI and the Kd was 0.76 nM.

B2: SRP2060-E10 (antibody, V domains shown)
VH: EVQLLESGGGLVQPGGSLRLSCAFSGFSLSTFGMGVGWVRQAPGKGLEWVSHIWWDDDKYYHPALKGRFTISKDNSKNTVYLQMNSLRAEDTAVYYCGRNHFPHYYGSSHWYFNVWGQGTTVTVSS
VL: EIVMTQSPATLSLSPGERATLSCKASQDINSYLSWYQQKPGQAPRLLIYRANRLVDGIPARFSGSGSGTDYTLTISSLEPEDFAVYYCLQYDEFPYTFGGGTKVEIK
notes: also called Antibody 56
In the test with human FOLR1-HIS [5], B2 gave a Kd of 2.06 nM, a koff of 0.0012 s⁻¹ and a kon of 582000 M⁻¹ s⁻¹.

B3: SRP2060-B01 (antibody, V domains shown)
VH: EVQLLESGGGLVQPGGSLRLSCALSGFSLSTFGMGVGWVRQATGKGLEWVSHIWWDDDKYYHPALKGRFTISKDNSKNTVHLQMNSLRAEDTAVYYCGRNHFPHYYGSSHWYFNVWGQGTTVTVSS
VL: DIQMTQSPSTLSASVGDRVTITCKASQDINSYLSWYQQKPGKAPKLLIYRANRLVDGVPSRFSGSGSGTEFTLTISSLQPDDFATYYCLQYDEFPYTFGGGTKVEIK
notes: also called Antibody 58
As for B3, in the test with human FOLR1-HIS [5], the affinity, expressed as Kd, was 2.62 nM; the koff is 0.00147 s⁻¹; the kon came to 561000 M⁻¹ s⁻¹.

B4: SRP2060-A06 (antibody, V domains shown)
VH: EVQLLESGGGLVQPGGSLRLSCAFSGFSLSTFGMGVGWVRQAPGKGLEWVGHIWWDDDKYYYPALKGRFTISKDNSKNTVYLQMNSLRAEDTAVYYCGRNHFPHYYGSSHWYFDVWGQGTTVTVSS
VL: DIQMTQSPSTLSASVGDRVTITCKASQDINSYLSWYQQKPGKAPKLLIYRANRLVDGVPSRFSGSGSGTEFTLTISSLQPDDFATYYCLQYDEFPYTFGGGTKVEIK
notes: also called Antibody 59
In the test with human FOLR1-HIS [5], B4 had a Kd of 13.3 nM, a koff of 0.00729 s⁻¹ and a kon of 547000 M⁻¹ s⁻¹.

B5: SRP2060-E05 (antibody, V domains shown)
VH: EVQLLESGGGLVQPGGSLRLSCAFSGFSLSTFGMGVGWVRQAPGKGLEWVSHIWWDDDKYYHPALKGRFTVSKDNSKNTVYLQMNSLRAEDTAVYYCGRNHFPHYYGSSHWYFNVWGQGTTVTVSS
VL: EIVMTQSPATLSLSPGERATLSCKASQDINSYLSWYQQKPGQAPRLLIYRANRLVDGIPARFSGSGSGTDYTLTISSLEPEDFAVYYCLQYDEFPYTFGGGTKVEIK
notes: also called Antibody 57
Take B5: in the test with human FOLR1-HIS [5], the Kd amounted to 2.92 nM, the koff worked out at 0.00158 s⁻¹ and the kon was determined as 541000 M⁻¹ s⁻¹.

B6: 1848-B10, Y180/F404 (antibody, V domains shown)
VH: EVQLVESGGGLVQPGGSLRLSCAASGFNTTTKSIHWVRQAPGKGLEWVGEIYPRDGITDYADSVKGRFTISADTSKNTAYLQMNSLRAEDTAVYYCARGGWHWRSGYSYYLDYWGQGTLVTVSS
VL: not shown
modifications: para-azidomethyl-L-phenylalanine (pAMF) at HC-Y180 and HC-F404 (EU numbering; both lie in the heavy chain constant region, not in this VH piece)
notes: Lead antibody with non-natural amino acid sites Y180/F404
Take B6: the figures for the Kd (in test [6]; with human FOLR1-HIS [7]; in test [8]) were 3.3 nM, 1.4 nM and 4.5 nM, respectively.

B7: 1848-H01, Y180/F404 (antibody, V domains shown)
VH: EVQLVESGGGLVQPGGSLRLSCAASGFNIRTQSIHWVRQAPGKGLEWIGDIFPIDGITDYADSVKGRFTISADTSKNTAYLQMNSLRAEDTAVYYCARGSWSWPSGMDYYLDYWGQGTLVTVSS
VL: not shown
modifications: para-azidomethyl-L-phenylalanine (pAMF) at HC-Y180 and HC-F404 (EU numbering; both lie in the heavy chain constant region, not in this VH piece)
notes: as for B6
As to B7, the Kd in test [6] turned out to be 3.8 nM; in the test with human FOLR1-HIS [7] it was 1 nM; in test [8] it was 3.7 nM.

B8: SRP1848-E06 (antibody, V domains shown)
VH: EVQLVESGGGLVQPSGSLRLSCAASGFNINRYYIHWVRQAPGKGLEWVGGITPNDGYTDYADSVEGRFTTSADTSKNTAYLQMNSLRAEDTAVYYCARGTWSWPSGHSYYLDYWGQGTLVTVSS
VL: not shown
notes: HC variant paired with trastuzumab LC, cell-free expressed, HIS- and FLAG-tagged; also called Antibody 35
With B8, in [1], the “Igrov, 2° Antibody Cell Killing, Nb-SC239: EC50” value is 0.025 nM; the “Igrov, 2° Antibody Cell Killing, Nb-SC239: Span” value was 74%; the “KB, 2° Antibody Cell Killing, Nb-239: Span” value turned out to be 93%. Further, in test [2], the “Bmax (MFI)” value came to 15800 MFI and the Kd turned out to be 0.26 nM. Further, in test [3], the “Bmax (MFI)” value is 2350 MFI and the Kd is 1.2 nM. In [4], the “Bmax (MFI)” value amounted to 25600 MFI and binding was characterised by a dissociation constant (Kd) of 0.48 nM.

B9: ADC Molecule 4 (1848-H01, Y180/F404, Conjugate P) (antibody, V domains shown)
VH: EVQLVESGGGLVQPGGSLRLSCAASGFNIRTQSIHWVRQAPGKGLEWIGDIFPIDGITDYADSVKGRFTISADTSKNTAYLQMNSLRAEDTAVYYCARGSWSWPSGMDYYLDYWGQGTLVTVSS
VL: not shown
modifications: Non-natural amino acid (para-azidomethyl-L-phenylalanine) at HC-Y180 and HC-F404 (EU, in the constant region, which has no SEQ ID NO), each linked to cleavable ValCit hemiasterlin (Conjugate P); DAR about 3.7-3.8
In the case of B9, in test [9], the “EC50 of cytotoxic activity on 293T cells expressing FolRα” value is less than 10 nM. Moreover, in [10], the “EC50 of cytotoxic activity on 293T cells expressing FolRβ” value was approximately 100 nM.

B10: ADC Molecule 4 (1848-H01, Y180/F404, Conjugate P) (antibody, V domains shown)
VH: EVQLVESGGGLVQPGGSLRLSCAASGFNIRTQSIHWVRQAPGKGLEWIGDIFPIDGITDYADSVKGRFTISADTSKNTAYLQMNSLRAEDTAVYYCARGSWSWPSGMDYYLDYWGQGTLVTVSS
VL: not shown
modifications: para-azidomethyl-L-phenylalanine at HC-Y180 and HC-F404 (EU numbering, heavy chain constant region), each linked to the cleavable hemiasterlin linker-drug of Conjugate P; DAR about 3.7-3.8
Consider B10, for which, in test [11], the “cell killing EC50 on Igrov1 cells in the presence of 0.5 uM unconjugated 1848-H01 as competitor” value is more than 33 nM and the “cell killing EC50 on OVCAR3 cells in the presence of 0.5 uM unconjugated 1848-H01 as competitor” value was more than 33 nM.

B11: antibody 1848-H01 (antibody, V domains shown)
VH: EVQLVESGGGLVQPGGSLRLSCAASGFNIRTQSIHWVRQAPGKGLEWIGDIFPIDGITDYADSVKGRFTISADTSKNTAYLQMNSLRAEDTAVYYCARGSWSWPSGMDYYLDYWGQGTLVTVSS
VL: not shown
notes: the light chain is that of trastuzumab; It was tested as an IgG (detected with anti-human IgG); also called SRP1848-H01
With B11, the Kd in [12] was 9.9 nM. The concentration giving a half-maximal response (EC50 (read off the curve)) in test [13] is approximately 10 nM.

B12: antibody 1848-B10 (antibody, V domains shown)
VH: EVQLVESGGGLVQPGGSLRLSCAASGFNTTTKSIHWVRQAPGKGLEWVGEIYPRDGITDYADSVKGRFTISADTSKNTAYLQMNSLRAEDTAVYYCARGGWHWRSGYSYYLDYWGQGTLVTVSS
VL: not shown
notes: the light chain is that of trastuzumab; It was tested as an IgG; also called SRP1848-B10
With B12, the binding result in test [14] is “no binding”. Moreover, the Kd in test [12] came to 6.4 nM.
